Measurements taken from publication doi:10.1101/2025.05.27.656348.

Molecular target: RELMβ bait: RELMβ fused to rat CD4d3+4, BirA recognition site and 6X-histidine tag (mouse) (UniProt Q99P86)
Assay: SPR

UniProt Q99P86, sequence (Q99P86 24-105): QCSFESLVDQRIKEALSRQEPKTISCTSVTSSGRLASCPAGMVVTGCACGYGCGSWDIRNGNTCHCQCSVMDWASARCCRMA

**Q.** “HpBoRB, C-terminal 6X-His tagged, from the pSecTAG2A expression vector (natural protein)” was tested. Which Kd did it give?
**A.** The Kd was < 100 pM.
